Data on 13 molecules can be found in patent US20250215083A1 (JIANGSU HENGRUI PHARMACEUTICALS, published 2025).

Read-outs that look alike come from different tables or passages of the source.

Assay [1] concerns the target T1, cynomolgus monkey GPRC5D (cynomolgus monkey).
T1 construct: whole, on cells; also called CynoGPRC5D; cynoGPRC5D
Briefly: FACS, CHOK1-cynoGPRC5D cells. The method, then:
(§1) To test the capacity of the GPRC5D/CD3 bispecific antibodies of the present disclosure to bind to GPRC5D, a flow cytometry assay was used in this test example to measure the capacity of the GPRC5D/CD3 bispecific antibodies to bind to the human multiple myeloma cell line MM.1R (ATCC® CRL-2975), which expresses GPRC5D, and to a stably transfected cell strain CHOK1-cynoGPRC5D, which expresses cynomolgus monkey GPRC5D. The specific procedure was as follows: The cells described above were cultured in complete culture medium containing 10% FBS, incubated in a 37° C., 5% CO₂ incubator for 2 days, and added to a cell plate at 1×10⁵ cells/well. The plate was centrifuged at 300 g for 5 min and washed once with 1% BSA. The antibodies were serially diluted to 8 concentrations and added to the cell plate at 100 μL/well. The plate was incubated at 4° C. for 1 h and washed once with 1% BSA. […] The plate was washed three times with 1% BSA, PBS was added at 100 μL/well, and plate reading was performed.

For assay [2], the target named is T1, cynomolgus monkey GPRC5D. Put plainly: FACS, CHOK1-cynoGPRC5D cells. This is another data set of the same source.
Assay [3] deals with T2, human GPRC5D (human, UniProt Q9NZD1 1-345).
T2 construct: whole, on cells; also called membrane surface GPRC5D
Put plainly: FACS, MM.1R cells.

Assay [4] has as its target T2, human GPRC5D. Briefly: FACS, MM.1R cells. As to the method:
as §1
This is another data set of the same source.

For another assay, the target named is T3, hCTLA4 (human, UniProt P16410 36-161).
T3 construct: purchased from Sino biology
Put plainly: ELISA per WO2021139758 Test Example 4.

Another assay addresses T4, hPDL1 (human, UniProt Q9NZQ7 19-238).
T4 construct: purchased from Sino biology
Put plainly: ELISA per WO2021139758 Test Example 4.

T2 sequence (Q9NZD1 whole entry): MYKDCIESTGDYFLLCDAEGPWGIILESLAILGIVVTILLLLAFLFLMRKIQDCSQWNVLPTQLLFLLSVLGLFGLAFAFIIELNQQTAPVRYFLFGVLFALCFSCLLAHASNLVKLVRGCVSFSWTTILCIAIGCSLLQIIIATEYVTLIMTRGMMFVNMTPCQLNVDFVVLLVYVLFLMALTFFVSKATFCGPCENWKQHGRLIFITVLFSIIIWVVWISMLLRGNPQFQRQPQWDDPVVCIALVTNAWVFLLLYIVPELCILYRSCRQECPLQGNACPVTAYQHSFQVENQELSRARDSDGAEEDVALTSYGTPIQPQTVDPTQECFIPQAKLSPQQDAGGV
T3 sequence (P16410 36-161 limits assumed): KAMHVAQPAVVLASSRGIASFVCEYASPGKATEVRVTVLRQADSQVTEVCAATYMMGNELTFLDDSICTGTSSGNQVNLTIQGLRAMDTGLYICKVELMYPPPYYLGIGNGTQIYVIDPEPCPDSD
T4 sequence (Q9NZQ7 19-238 limits assumed): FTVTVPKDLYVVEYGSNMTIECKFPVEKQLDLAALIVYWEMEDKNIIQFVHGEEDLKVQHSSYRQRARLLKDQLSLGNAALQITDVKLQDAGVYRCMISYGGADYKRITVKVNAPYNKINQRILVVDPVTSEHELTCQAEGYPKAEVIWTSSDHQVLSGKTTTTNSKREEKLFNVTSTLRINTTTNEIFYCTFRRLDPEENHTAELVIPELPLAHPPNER

B1: F4-5 (bispecific antibody)
heavy 1: not shown
light 1: not shown
heavy 2: EVQLVESGGGLVQPGGSLRLSCAASGFTFTDYYLSWVKQAPGKGLEWVAFIRNRAKGYTTEYSASVKGRFTISRDNAQNSLYLQMNSLRAEDTAVYYCARMGGKGWHFDVWGQGTTVTVSSASTKGPSVFPLAPSSKSTSGGTAALGCLVKDYFPEPVTVSWNSGALTSGVHTFPAVLQSSGLYSLSSVVTVPSSSLGTQTYICNVNHKPSNTKVDKKVEPKSCDKTHTCPPCPAPEAAGGPSVFLFPPKPKDTLMISRTPEVTCVVVDVSHEDPEVKFNWYVDGVEVHNAKTKPREEQYNSTYRVVSVLTVLHQDWLNGKEYKCKVSNKALPAPIEKTISKAKGQPREPQVCTLPPSRDELTKNQVSLSCAVKGFYPSDIAVEWESNGQPENNYKTTPPVLDSDGSFFLVSKLTVDKSRWQQGNVFSCSVMHEALHNHYTQKSLSLSPGK
light 2: DVVMTQSPLSLPVTPGEPASISCRSSQSIVHSNRNTYLEWYLQKPGQSPKLLIYKVSNRFSGVPDRFFGSGSGTDFTLKINRVEAEDVGVYYCFQGSHVPFTFGGGTKVEIKRTVAAPSVFIFPPSDEQLKSGTASVVCLLNNFYPREAKVQWKVDNALQSGNSQESVTEQDSKDSTYSLSSTLTLSKADYEKHKVYACEVTHQGLSSPVTKSFNRGEC
notes: formula 4
With B1, the EC50 is 3.16 nM in the assay with cynomolgus monkey GPRC5D [1], 3.16 nM in the assay with cynomolgus monkey GPRC5D [2], 12.8 nM in the assay with human GPRC5D [3] and 12.8 nM with human GPRC5D [4]. Also, the Max is 71300 with cynomolgus monkey GPRC5D [2] and 13400 with human GPRC5D [3].

B2: PL-1 (bispecific antibody)
chain 1: not shown
chain 2: DIVLTQSPASLAVSPGQRATITCRASESVSIHGTHLMHWYQQKPGQPPKLLIYAASKLESGVPARFSGSGSGTDFTLTINPVEAEDTANYYCQQSFEDPLTFGQGTKLEIKGGGGSGIPPKIECLPIDISIDEGKVLTVASAFTGEPTPEVTWSTGGRKIHSQEQGRFHIENTDDLTTLIIKDVQKQDGGLYTLTLRNEFGSDSATVNIHIRSI
chain 3: not shown
chain 4: not shown
Consider B2, for which the EC50 in the assay with hCTLA4 was 16.5 nM; with hPDL1, 1.6 nM.

B3: PL-4 (bispecific antibody)
chain 1: not shown
chain 2: DIVLTQSPASLAVSPGQRATITCRASESVSIHGTHLMHWYQQKPGQPPKLLIYAASKLESGVPARFSGSGSGTDFTLTINPVEAEDTANYYCQQSFEDPLTFGQGTKLEIKGGGGSGIPPKIECLPIDISIDEGKVLTVASCFTGEPTPEVTWSTGGRKIHSQEQGRFHIENTDDSTTLTIKDVQKQDGGLYTLTLRNEFGSDSATVNIHIRSI
chain 3: not shown
chain 4: not shown
As to B3, the 50% effective concentration (EC50) in the assay with hCTLA4 was 6.5 nM; in the assay with hPDL1 it was 0.7 nM.

B4: PL-9 (bispecific antibody)
chain 1: not shown
chain 2: DIVLTQSPASLAVSPGQRATITCRASESVSIHGTHLMHWYQQKPGQPPKLLIYAASKLESGVPARFSGSGSGTDFTLTINPVEAEDTANYYCQQSFEDPLTFGQGTKLEIKGGGGSGIPPKIECLPIDISIDEGKCLTVASAFTGEPTPEVTWSTGGRKIHSQEQGRFHIENTDDSTTLTIKDVQKQDGGLYTLTLRNEFGSDSATVNIHIRSI
chain 3: not shown
chain 4: not shown
In the case of B4, the EC50 with hCTLA4 was determined as 5.5 nM; with hPDL1 it was 0.6 nM.

B5: PL-10 (bispecific antibody)
chain 1: not shown
chain 2: DIVLTQSPASLAVSPGQRATITCRASESVSIHGTHLMHWYQQKPGQPPKLLIYAASKLESGVPARFSGSGSGTDFTLTINPVEAEDTANYYCQQSFEDPLTFGQGTKLEIKGGGGSGIPPKIECLPIDISIDEGKVLTVASCFTGEPTPEVTWSTGGRKIHSQEQGRFHIENTDDSTTLTIKDVQKQDGGLYTLTLRNEFGSDSATVNIHIRSI
chain 3: not shown
chain 4: not shown
With B5, the EC50 with hCTLA4 stood at 6.9 nM; with hPDL1, 0.6 nM.

B6: PL-11 (bispecific antibody)
chain 1: not shown
chain 2: DIVLTQSPASLAVSPGQRATITCRASESVSIHGTHLMHWYQQKPGQPPKLLIYAASKLESGVPARFSGSGSGTDFTLTINPVEAEDTANYYCQQSFEDPLTFGQGTKLEIKRTVASGIPPKIECLPIDISIDEGKVLTVASAFTGEPTPEVTWSTGGRKIHSQEQGRFHIENTDDSTTLTIKDVQKQDGGLYTLTLRNEFGSDSATVNIHIRSI
chain 3: not shown
chain 4: not shown
In the case of B6, the EC50 with hCTLA4 is 5.6 nM; with hPDL1 it was 0.6 nM.

B7: PL-2 (bispecific antibody)
chain 1: not shown
chain 2: DIVLTQSPASLAVSPGQRATITCRASESVSIHGTHLMHWYQQKPGQPPKLLIYAASKLESGVPARFSGSGSGTDFTLTINPVEAEDTANYYCQQSFEDPLTFGQGTKLEIKGGGGSGIPPKIECLPIDISIDEGKVLTVASAFTGEPTPEVTWSTGGRKIHSQEQGRFHIENTDDSTTLTIKDVQKQDGGLYTLTLRNEFGSDSATVNIHIRSI
chain 3: not shown
chain 4: not shown
For B7, the figures for the 50% effective concentration (EC50) in the assay with hCTLA4 and with hPDL1 were 8 nM and 0.5 nM, respectively.

B8: PL-6 (bispecific antibody)
chain 1: not shown
chain 2: DIVLTQSPASLAVSPGQRATITCRASESVSIHGTHLMHWYQQKPGQPPKLLIYAASKLESGVPARFSGSGSGTDFTLTINPVEAEDTANYYCQQSFEDPLTFGQGTKLEIKGGGGSGIPPKIECLPIDISIDEGKCLTVASAFTGEPTPEVTWSTGGRKIHSQEQGRFHIENTDDSTTLTIKDVQKQDGGLYTLTLRNEFGSDSATVNIHIRSI
chain 3: not shown
chain 4: not shown
As for B8, the figures for the EC50 in the assay with hCTLA4 and with hPDL1 were 5.3 nM and 0.8 nM, respectively.

B9: PL-7 (bispecific antibody)
chain 1: not shown
chain 2: DIVLTQSPASLAVSPGQRATITCRASESVSIHGTHLMHWYQQKPGQPPKLLIYAASKLESGVPARFSGSGSGTDFTLTINPVEAEDTANYYCQQSFEDPLTFGQGTKLEIKGGGGSGIPPKIECLPIDISIDEGKVLTVASCFTGEPTPEVTWSTGGRKIHSQEQGRFHIENTDDSTTLTIKDVQKQDGGLYTLTLRNEFGSDSATVNIHIRSI
chain 3: not shown
chain 4: not shown
As for B9, the results for the EC50 with hCTLA4 and in the assay with hPDL1 were 7.3 nM and 0.5 nM, respectively.

B10: PL-3 (bispecific antibody)
chain 1: not shown
chain 2: DIVLTQSPASLAVSPGQRATITCRASESVSIHGTHLMHWYQQKPGQPPKLLIYAASKLESGVPARFSGSGSGTDFTLTINPVEAEDTANYYCQQSFEDPLTFGQGTKLEIKGGGGSGIPPKIECLPIDISIDEGKCLTVASAFTGEPTPEVTWSTGGRKIHSQEQGRFHIENTDDSTTLTIKDVQKQDGGLYTLTLRNEFGSDSATVNIHIRSI
chain 3: not shown
chain 4: not shown
As to B10, the values for the EC50 with hCTLA4 and with hPDL1 were 7.9 nM and 0.6 nM, respectively.

B11: PL-8 (bispecific antibody)
chain 1: not shown
chain 2: DIVLTQSPASLAVSPGQRATITCRASESVSIHGTHLMHWYQQKPGQPPKLLIYAASKLESGVPARFSGSGSGTDFTLTINPVEAEDTANYYCQQSFEDPLTFGQGTKLEIKGGGGSGIPPKIECLPIDISIDEGKVLTVASAFTGEPTPEVTWSTGGRKIHSQEQGRFHIENTDDSTTLTIKDVQKQDGGLYTLTLRNEFGSDSATVNIHIRSI
chain 3: not shown
chain 4: not shown
In the case of B11, the half-maximal effective concentration (EC50) was 14.5 nM in the assay with hCTLA4 and 1.4 nM with hPDL1.

B12: PL-12 (bispecific antibody)
chain 1: not shown
chain 2: DIVLTQSPASLAVSPGQRATITCRASESVSIHGTHLMHWYQQKPGQPPKLLIYAASKLESGVPARFSGSGSGTDFTLTINPVEAEDTANYYCQQSFEDPLTFGQGTKLEIKRTVASGIPPKIECLPIDISIDEGKCLTVASAFTGEPTPEVTWSTGGRKIHSQEQGRFHIENTDDSTTLTIKDVQKQDGGLYTLTLRNEFGSDSATVNIHIRSI
chain 3: not shown
chain 4: not shown
On to B12, for which the EC50 was 8 nM with hCTLA4 and 0.5 nM with hPDL1.

B13: PL-5 (bispecific antibody)
chain 1: not shown
chain 2: DIVLTQSPASLAVSPGQRATITCRASESVSIHGTHLMHWYQQKPGQPPKLLIYAASKLESGVPARFSGSGSGTDFTLTINPVEAEDTANYYCQQSFEDPLTFGQGTKLEIKGGGGSGIPPKIECLPIDISIDEGKVLTVASAFTGEPTPEVTWSTGGRKIHSQEQGRFHIENTDDSTTLTIKDVQKQDGGLYTLTLRNEFGSDSATVNIHIRSI
chain 3: not shown
chain 4: not shown
With B13, the EC50 in the assay with hCTLA4 stood at 6.7 nM; with hPDL1, 0.7 nM.
